Where two headings read alike, the source gives them in different places.
How the values were obtained:
Test in all cases: cryo-EM structure
[1] = molecular target: SARS-CoV-2 Omicron prefusion-stabilized soluble trimeric spike ectodomain (S-trimer) (SARS-CoV-2) (UniProt P0DTC2)
[2] = molecular target: SARS-CoV-2 Omicron prefusion-stabilized soluble trimeric spike ectodomain (S-trimer) (SARS-CoV-2) (UniProt P0DTC2); remark: listed apart in the source
[3] = molecular target: SARS-CoV-2 Delta prefusion-stabilized soluble trimeric spike ectodomain (S-trimer) (SARS-CoV-2) (UniProt P0DTC2)

Row | Substance | stoichiometry N [1] [protomers] | stoichiometry N [2] [protomers] | stoichiometry N [3] [protomers]
1 | SARS-CoV-2 Omicron prefusion-stabilized soluble trimeric spike ectodomain (S-trimer) (from UniProt P0DTC2 14-1208) (natural protein) | 3 | 3 | –
2 | SARS-CoV-2 Delta prefusion-stabilized soluble trimeric spike ectodomain (S-trimer) (from UniProt P0DTC2 14-1208) (natural protein) | – | – | 3

Reference: PMC8786603
